Results as given in the RNAGym collection of RNA variant scans (doi:10.7554/elife.90254).

B1: OR4K15 (parent)
chain: GUUAACGGUCAUAGGCCAUGGAAACUAGGAGCACCAUUUCGCUGCCAGUGAAGAAAUGAACAAAGAAAAUCUGGGCCAGGCAGGCAUCAAAAGAAAUAGUCUUGCGCUCAACCAGAAAGUCUGUAAUCAUUUUAAGGGUA

Variants of: B1
Test: self-cleavage, relative activity (ratio to wild type); higher = more cleavage; in vitro, sequencing; the parent is a self-cleaving ribozyme

| Variant | self-cleavage |
| --- | --- |
| A23U U43A | 1.44 |
| A24G A89G | 0.78 |
| A24G A89U | 1.41 |
| A24G A66U | 1.11 |
| A24G A66G | 0.73 |
| A23G U100C | 1.72 |
| A23G U100A | 0.74 |
| A23U A89G | 0.86 |
| A23G G53C | 1.82 |
| A23U A86C | 0.82 |
| A23U A94G | 1.18 |
| A23U A94U | 0.3 |
| A24G A68G | 1.01 |
| A24G A68C | 1.49 |
| A23U G79A | 0.16 |
| A24C U26C | 1.52 |
| A23G U122A | 1.72 |
| A23G U132A | 0.86 |
| A23G U132C | 1.07 |
| A23U A91G | 0.79 |
| A24C U72A | 0.28 |
| A24G A95U | 1.16 |
| A23G U130C | 0.57 |
| A24C U57A | 1.21 |

| Variant | self-cleavage |
| --- | --- |
| A24C A118G | 0.96 |
| A24G A110U | 0.99 |
| A24C G104A | 0.01 |
| A23U C32U | 2.28 |
| A23G C105G | 0.07 |
| A23G A118C | 0.5 |
| A24G A82U | 0.31 |
| A24G A67G | 1.32 |
| A24C U49C | 1.53 |
| A24C A94G | 1.63 |
| A24G A52U | 0.64 |
| A23U A78U | 0.2 |
| A24C A125G | 0.43 |
| A23G G80A | 0.31 |
| A23G U103C | 0.77 |
| A23U A36U | 1.53 |
| A24C A92G | 1.9 |
| A24C U38C | 1.26 |
| A24C A62G | 1.2 |
| A23G C121U | 2.12 |
| A23G G104A | 0.03 |
| A23U A66U | 1.42 |
| A24G A114U | 0.19 |
| A23G A91U | 1.57 |

| Variant | self-cleavage |
| --- | --- |
| A23U A63G | 0.92 |
| A23G A96G | 0.92 |
| A24G A33C | 1.62 |
| A23U G123A | 1.5 |
| A23G A95G | 1.59 |
| A23G G44U | 1.21 |
| A24G A90G | 1.03 |
| A23U U38C | 0.48 |
| A24G A36G | 1.15 |
| A24C A59G | 1.51 |
| A23G C77U | 2.07 |
| A24G A92U | 1.45 |
| A24G A54U | 1.48 |
| A23G C42G | 1.11 |
| A24C U108A | 0.01 |
| A24C U108C | 0.01 |
| A24G A47U | 0.96 |
| A24G A91U | 1.61 |
| A23U A92G | 1.46 |
| A23G U38C | 1.38 |
| A24C A68G | 1.52 |
| A24G A117G | 1.45 |
| A24G A111C | 0.02 |
| A24G A111U | 0.19 |

| Variant | self-cleavage |
| --- | --- |
| A23G A94U | 1.54 |
| A23U U70C | 0.83 |
| A24C A78G | 0.32 |
| A24C A78C | 0.36 |
| A23G U108G | 0 |
| A23G U108C | 0.03 |
| A23G A92C | 1.29 |
| A24G A96U | 0.93 |
| A24C A52G | 1.55 |
| A23U A51U | 1.33 |
| A23U A51G | 1.24 |
| A23U A95G | 1.75 |
| A23U | 1.19 |
| A23U U37C | 1.41 |
| A23G G28A | 0.93 |
| A23U A110U | 0.93 |
| A24C A126G | 0 |
| A24G A63G | 1.17 |
| A23G U70C | 0.64 |
| A23G U70A | 0.97 |
| A24C A66G | 1.16 |
| A24C A82G | 0.62 |
| A23G A116U | 0.3 |
| A23G C45U | 1.23 |

| Variant | self-cleavage |
| --- | --- |
| A23G A110C | 0.09 |
| A23G A117U | 0.55 |
| A23G A117C | 0.36 |
| A23G A140U | 1.15 |
| A23G A140C | 1.55 |
| A23G A140G | 1.61 |
| A23U A69G | 1.02 |
| A23G U39A | 0.98 |
| A23G U57C | 1.04 |
| A23G U57A | 0.53 |
| A23U A82G | 0.82 |
| A24C U131C | 1.82 |
| A23U A126G | 0.96 |
| A23G U43A | 0.88 |
| A24G A51G | 1.27 |
| A24G A51U | 1.19 |
| A24C A30G | 1.02 |
| A23G C40U | 1.37 |
| A23G G83A | 1.24 |
| A23U A67U | 1.91 |
| A23G C71U | 0.31 |
| A24C A89G | 1.68 |
| A24G A116G | 0.61 |
| A24C U127C | 1.03 |

| Variant | self-cleavage |
| --- | --- |
| A23G G84A | 1.58 |
| A23G U72A | 0.23 |
| A24G A30C | 1.22 |
| A24G A30G | 1.01 |
| A24C A51G | 1.23 |
| A23G G75C | 0.16 |
| A23U U122C | 1 |
| A24C G80A | 0.19 |
| A23G A98G | 0.23 |
| A24G A98U | 1.74 |
| A24G A98G | 0.51 |
| A23G U102A | 0.82 |
| A23U U102C | 1.7 |
| A23U A117U | 0.6 |
| A24C U43C | 1.9 |
| A24C U43A | 0.67 |
| A24C A54G | 1.21 |
| A23G U133C | 1.35 |
| A24G A60G | 0.89 |
| A23U A56G | 1.29 |
| A23G G137A | 1.04 |
| A24C U102C | 1.22 |
| A24C A47U | 0.89 |
| A23U A68G | 1.45 |

| Variant | self-cleavage |
| --- | --- |
| A23U A59G | 2.4 |
| A24G A59G | 1.23 |
| A24G A59C | 0 |
| A24G A64U | 1.51 |
| A23G U49A | 1.12 |
| A23G U49G | 1.02 |
| A23G U37A | 1.24 |
| A23G U26A | 1.22 |
| A23G U26C | 1.42 |
| A23U U132C | 1.03 |
| A23U A33G | 1.06 |
| A24C U100C | 1.84 |
| A23G G41A | 1.29 |
| A24C A60G | 1.17 |
| A24G A118G | 1.01 |
| A24G A86G | 1.19 |
| A24G A78U | 0.39 |
| A24G A78G | 0.21 |
| A24C U139C | 2.1 |
| A23U A24G | 1.15 |
| A24C | 1.29 |
| A24G | 1.09 |
| A23G U97G | 1.16 |
